Substitutions are numbered along the chain they refer to.
Columns and labels:
[1] = target: Mouse IL-11, endogenously produced by TGFβ1-stimulated mouse atrial fibroblasts (mouse) (UniProt P47873); experiment: cell-based or functional assay
[2] = target: Human IL-11, endogenously produced by TGFβ1-stimulated human cells (human) (UniProt P20809); experiment: cell-based or functional assay
[3] = target: T1, Mouse IL-11Rα endogenously expressed on primary mouse fibroblasts (mouse, UniProt Q64385 24-432); experiment: cell-based or functional assay
T1 sequence (looked up): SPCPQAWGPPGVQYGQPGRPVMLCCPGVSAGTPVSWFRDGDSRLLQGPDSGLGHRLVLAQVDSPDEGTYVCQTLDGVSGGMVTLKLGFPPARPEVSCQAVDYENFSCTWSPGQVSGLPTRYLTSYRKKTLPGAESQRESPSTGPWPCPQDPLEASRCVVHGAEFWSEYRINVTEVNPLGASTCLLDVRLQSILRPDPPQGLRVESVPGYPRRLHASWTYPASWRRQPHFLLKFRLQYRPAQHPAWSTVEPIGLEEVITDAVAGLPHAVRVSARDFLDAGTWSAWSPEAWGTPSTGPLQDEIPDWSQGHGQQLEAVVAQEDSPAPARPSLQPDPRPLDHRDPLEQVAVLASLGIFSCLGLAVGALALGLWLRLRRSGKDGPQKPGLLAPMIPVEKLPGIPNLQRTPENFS

[4] = target: T2, IL-11:IL-11Rα fusion protein (hyper IL-11); experiment: cell-based or functional assay
T2 chain: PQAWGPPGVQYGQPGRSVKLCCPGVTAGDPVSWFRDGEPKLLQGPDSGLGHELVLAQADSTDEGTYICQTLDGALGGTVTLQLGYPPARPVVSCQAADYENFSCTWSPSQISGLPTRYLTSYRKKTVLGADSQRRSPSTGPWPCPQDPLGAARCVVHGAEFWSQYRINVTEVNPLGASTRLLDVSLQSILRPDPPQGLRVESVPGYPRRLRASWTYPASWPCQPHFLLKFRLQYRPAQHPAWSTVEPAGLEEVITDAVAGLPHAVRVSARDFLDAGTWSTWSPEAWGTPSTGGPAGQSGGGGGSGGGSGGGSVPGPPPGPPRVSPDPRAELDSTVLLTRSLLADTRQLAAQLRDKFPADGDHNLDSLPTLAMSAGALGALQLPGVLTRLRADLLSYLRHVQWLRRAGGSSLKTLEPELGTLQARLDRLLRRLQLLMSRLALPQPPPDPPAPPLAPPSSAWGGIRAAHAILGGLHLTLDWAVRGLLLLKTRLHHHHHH

[5] = target: T3, Recombinant human IL-11Rα (Sino Biological Cat. No. 10252-H08H) (human, UniProt Q14626 23-363); experiment: SPR, BIAcore T200, multi-cycle kinetics; recombinant human IL-11Rα immobilised, antibody (IgG1 format) flowed at 50 to 1.56 nM; 1:1 model; analysis (2); Chi2 0.0356 RU2
T3 construct: Bought protein, immobilised on the chip
T3 sequence (looked up): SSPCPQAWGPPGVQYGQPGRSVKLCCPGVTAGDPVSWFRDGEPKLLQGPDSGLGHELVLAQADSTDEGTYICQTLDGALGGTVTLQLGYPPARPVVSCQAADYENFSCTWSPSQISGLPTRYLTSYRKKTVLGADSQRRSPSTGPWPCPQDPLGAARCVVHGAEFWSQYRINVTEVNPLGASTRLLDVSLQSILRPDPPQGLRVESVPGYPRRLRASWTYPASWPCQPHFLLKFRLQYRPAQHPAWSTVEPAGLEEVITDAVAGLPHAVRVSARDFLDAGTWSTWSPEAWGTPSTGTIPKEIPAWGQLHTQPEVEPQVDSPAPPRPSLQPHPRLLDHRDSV

[6] = target: T4, Human IL-11Rα endogenously expressed on primary human cells (human, UniProt Q14626 23-422); experiment: cell-based or functional assay
T4 sequence (looked up): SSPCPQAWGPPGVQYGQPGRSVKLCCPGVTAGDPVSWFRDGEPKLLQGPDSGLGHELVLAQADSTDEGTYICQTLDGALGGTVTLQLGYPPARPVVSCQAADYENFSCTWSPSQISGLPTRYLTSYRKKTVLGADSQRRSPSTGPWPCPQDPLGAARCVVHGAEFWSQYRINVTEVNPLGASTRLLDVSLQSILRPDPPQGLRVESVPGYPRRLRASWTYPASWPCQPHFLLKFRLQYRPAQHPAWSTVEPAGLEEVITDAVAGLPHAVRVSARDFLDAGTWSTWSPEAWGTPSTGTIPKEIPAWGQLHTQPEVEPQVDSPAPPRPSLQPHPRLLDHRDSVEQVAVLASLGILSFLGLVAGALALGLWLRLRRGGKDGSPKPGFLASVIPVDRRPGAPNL

[7] = target: T2, IL-11:IL-11Rα fusion protein (hyper …); experiment: cell-based or functional assay
[8] = target: T4, Human IL-11Rα endogenously expressed on …; experiment: cell-based or functional assay; remark: listed apart in the source
[9] = target: Tagged human IL-11Rα expressed at the surface of transiently transfected cells (human) (UniProt Q14626); experiment: flow cytometry of subcloned hybridoma supernatant on cells transiently transfected with FLAG-tagged human IL-11Rα (sheet head: 'cells transfected with pB1-IL11-hum.FL', 'flow cytometry (Attunes)'); fluorescent anti-mouse IgG secondary; negative control GMFI 930
[10] = target: T4, Human IL-11Rα endogenously expressed on …; experiment: cell-based or functional assay; remark: listed apart in the source
[11] = target: Tagged human IL-11Rα expressed at the surface of transiently transfected cells (human) (UniProt Q14626); experiment: same assay; by the legend the percent is the strength of binding relative to the anti-FLAG positive control (100%); negative control 3%
[12] = target: T4, Human IL-11Rα endogenously expressed on …; experiment: cell-based or functional assay; remark: listed apart in the source
[13] = target: T5, IL-11Rα as used in the Biacore kinetics of Example 14 (UniProt Q14626 23-363, limits assumed); experiment: SPR (Biacore T200), multi-cycle kinetics, 25 C, HBS-P+ pH 7.4 with 0.1% BSA
T5 sequence (looked up): T3 sequence (looked up)
Procedure: The six antibodies were assessed by multi-cycle kinetics analysis at a final concentration of 1 μg/ml, run at 25° C. with HBS-P+ running buffer (pH 7.4) containing 0.1% BSA using a Biacore T200 instrument.
The relative KD was calculated by dividing the KD of the humanised variant by that of the 9A7 antibody assayed in the same experiment. All six humanised antibodies bound to IL-11R within two-fold of 9A7 (SEQ ID NO:7 and 13).

[14] = target: T3, Recombinant human IL-11Rα (Sino …); experiment: SPR, BIAcore T200, multi-cycle kinetics; recombinant human IL-11Rα immobilised, antibody (IgG1 format) flowed at 100 to 1.56 nM; 1:1 model; analysis (1); Chi2 0.181 RU2
[15] = target: T4, Human IL-11Rα endogenously expressed on …; experiment: cell-based or functional assay; remark: listed apart in the source
[16] = target: T4, Human IL-11Rα endogenously expressed on …; experiment: cell-based or functional assay; remark: listed apart in the source

Mouse IL-11, endogenously produced by TGFβ1-stimulated mouse atrial fibroblasts (mouse), sequence (P47873 22-199 limits assumed): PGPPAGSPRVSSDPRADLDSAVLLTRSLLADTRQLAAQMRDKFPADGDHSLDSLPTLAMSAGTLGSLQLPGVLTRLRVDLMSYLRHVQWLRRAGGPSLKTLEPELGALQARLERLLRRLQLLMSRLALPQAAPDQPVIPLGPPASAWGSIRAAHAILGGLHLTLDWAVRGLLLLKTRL

Commercial monoclonal mouse anti-IL-11 antibody (Monoclonal Mouse IgG2A; Clone #22626; Catalog No. MAB218; R&D Systems)
fold change in percentage of αSMA-positive (activated) mouse atrial fibroblasts against unstimulated cultures, TGFβ1, 24 h [1]: 1.44 fold
fold change in percentage of αSMA-positive (activated) human atrial fibroblasts against unstimulated cultures, TGFβ1 5 ng/ml, 24 h [2]: 0.89 fold

B1: Anti-IL-11Rα antibody clone BSO-9A7 (antibody, V domains shown)
VH: QVQLQQPGAELVRPGSSVKLSCKASGYTFTNYWMHWLKQRPVQGLEWIGNIGPSDSKTHYNQKFKDKATLTVDKSSSTAYMQLNSLTSEDSAVYYCARGDYVLFTYWGQGTLVTVSA
VL: DIVLTQSPATLSMTPGDSVSLSCRASQSISNNLHWYQQKSHESPRLLIKYASQSISGIPSRFSGSGSGTDFTLSFNSVETEDFGVYFCQQSYSWPLTFGAGTKLELK
notes: also called RA7; 9A7 VH/VL
IC50 of inhibition of MMP2 secretion, primary mouse cardiac fibroblasts + TGFB1 5 ng/ml (endogenous IL-11) (panel 'TGFB1-driven MMP2 secretion') [3]: 14.6 ng/mL
IC50 of inhibition of MMP2 secretion, primary mouse cardiac fibroblasts + exogenous IL-11 2 ng/ml (panel 'IL-11-driven MMP2 secretion') [3]: 29.2 ng/mL
IC50 of inhibition of MMP2 secretion, primary mouse cardiac fibroblasts + IL-11:IL11RA (hyper IL-11) 0.2 ng/ml (panel 'IL-11:IL11RA-driven MMP2 secretion') [4]: 35.1 ng/mL
Kd [5]: 5.46 nM
koff [5]: 0.000875 s⁻¹
kon [5]: 160000 M⁻¹ s⁻¹
IC50 of inhibition of TIMP1 secretion, primary human lung fibroblasts + TGFB1 5 ng/ml (panel '9A7') [6]: 2.29 ng/mL
IC50 of inhibition of MMP2 secretion, human atrial fibroblasts + IL-11:IL11RA (hyper IL-11) 0.2 ng/ml (panel 'MMP2 - IL-11:IL11RA - 9A7') [7]: 246 ng/mL
IC50 of inhibition of TIMP1 secretion, human atrial fibroblasts + IL-11:IL11RA (hyper IL-11) 0.2 ng/ml (panel 'TIMP1 - IL-11:IL11RA - 9A7') [7]: 196 ng/mL
IC50 of inhibition of MMP2 secretion by HSCs stimulated with TGFβ1 (5 ng/ml, 24 h) [8]: 5.4 pM
GMFI [9]: 34800
IC50 of inhibition of MMP2 secretion, primary human atrial fibroblasts + TGFβ1 (panel '9A7') [10]: 5.88 ng/mL
% positive [11]: 111%
IC50 of inhibition of MMP2 secretion, human atrial fibroblasts + TGFB1 5 ng/ml, 24 h (panel 'MMP2 - TGFB - 9A7') [12]: 82 ng/mL
IC50 of inhibition of TIMP1 secretion, human atrial fibroblasts + TGFB1 5 ng/ml, 24 h (panel 'TIMP1 - TGFB - 9A7') [12]: 97.4 ng/mL
Kd [13]: 4.29 nM
koff [13]: 0.000926 s⁻¹
kon [13]: 216000 M⁻¹ s⁻¹
relative KD (KD divided by KD of 9A7) [13]: 1 ratio to 9A7
Kd [14]: 7.85 nM
koff [14]: 0.000759 s⁻¹
kon [14]: 96600 M⁻¹ s⁻¹
IC50 of inhibition of MMP2 secretion, primary human hepatic stellate cells + TGFB1 5 ng/ml (endogenous IL-11); upper panel [15]: 0.93 ng/mL
IC50 of inhibition of MMP2 secretion, primary human hepatic stellate cells + exogenous IL-11 2 ng/ml; lower panel [15]: 1.64 ng/mL

B2: Humanised BSO-9A7 variant VH3/VL3 (antibody, V domains shown)
VH: QVQLVQSGAEVKKPGASVKVSCKASGYTFTNYWMHWLRQRPGQGLEWIGNIGPSDSKTHYNQKFKDRATLTVDKSTSTAYMELSSLRSEDTAVYYCARGDYVLFTYWGQGTLVTVSS
VL: DIVLTQSPATLSLSPGERATLSCRASQSISNNLHWYQQKPGQAPRLLIKYASQSISGIPARFSGSGSGTDFTLTISSLEPEDFAVYFCQQSYSWPLTFGQGTKLEIK
notes: Variable domains only
IC50 of inhibition of TIMP1 secretion, primary human lung fibroblasts + TGFB1 5 ng/ml (panel 'VH3/VL3') [6]: 27.4 ng/mL
IC50 of inhibition of MMP2 secretion, human hepatic stellate cells + TGFβ1 5 ng/ml (panel 'VH3/VL3') [16]: 23.3 ng/mL
IC50 of inhibition of MMP2 secretion, primary human atrial fibroblasts + TGFβ1 (panel 'VH3/VL3') [10]: 32.6 ng/mL
Kd [13]: 3.61 nM
koff [13]: 0.000751 s⁻¹
kon [13]: 208000 M⁻¹ s⁻¹
relative KD (KD divided by KD of 9A7) [13]: 0.84 ratio to 9A7

B3: Humanised BSO-9A7 variant VH4/VL2 (antibody, V domains shown)
VH: B2 VH with A68V, L70M
VL: B2 VL with P40S, P80T
notes: Variable domains only
IC50 of inhibition of MMP2 secretion, primary human atrial fibroblasts + TGFβ1 (panel 'VH4/VL2') [10]: 11.1 ng/mL
Kd [13]: 5.67 nM
koff [13]: 0.000932 s⁻¹
kon [13]: 164000 M⁻¹ s⁻¹
relative KD (KD divided by KD of 9A7) [13]: 1.32 ratio to 9A7

B4: Humanised BSO-9A7 variant VH4/VL3 (antibody, V domains shown)
VH: B2 VH with A68V, L70M
VL: B2 VL
notes: Variable domains only
IC50 of inhibition of MMP2 secretion, primary human atrial fibroblasts + TGFβ1 (panel 'VH4/VL3') [10]: 64.7 ng/mL
Kd [13]: 5.57 nM
koff [13]: 0.000992 s⁻¹
kon [13]: 178000 M⁻¹ s⁻¹
relative KD (KD divided by KD of 9A7) [13]: 1.3 ratio to 9A7

B5: Humanised BSO-9A7 variant VH3/VL4 (antibody, V domains shown)
VH: B2 VH
VL: B2 VL with F87Y
notes: Variable domains only
Kd [13]: 3.71 nM
koff [13]: 0.000747 s⁻¹
kon [13]: 201000 M⁻¹ s⁻¹
relative KD (KD divided by KD of 9A7) [13]: 0.86 ratio to 9A7

B6: Humanised BSO-9A7 variant VH4/VL4 (antibody, V domains shown)
VH: B2 VH with A68V, L70M
VL: B2 VL with F87Y
notes: Variable domains only; also called printed once as VH4/VH4
IC50 of inhibition of TIMP1 secretion, primary human lung fibroblasts + TGFB1 5 ng/ml (panel 'VH4/VL4') [6]: 4.19 ng/mL
IC50 of inhibition of MMP2 secretion, human hepatic stellate cells + TGFβ1 5 ng/ml (panel 'VH4/VL4') [16]: 3.15 ng/mL
Kd [13]: 5.55 nM
koff [13]: 0.000781 s⁻¹
kon [13]: 141000 M⁻¹ s⁻¹
relative KD (KD divided by KD of 9A7) [13]: 1.29 ratio to 9A7

B7: Humanised BSO-9A7 variant VH3/VL2 (antibody, V domains shown)
VH: B2 VH
VL: B2 VL with P40S, P80T
notes: T0003 heads the columns 'Heavy chain' and 'Light chain', but the entries are variable domains
Kd [13]: 3.63 nM
koff [13]: 0.000801 s⁻¹
kon [13]: 221000 M⁻¹ s⁻¹
relative KD (KD divided by KD of 9A7) [13]: 0.85 ratio to 9A7
